We go through one substance from patent US20180236031A1.

The target of this test is high-affinity TrkA receptor on the TF-1 cell surface (UniProt P04629). Put plainly: cell-based or functional assay.
Sequence of UniProt P04629 (P04629 33-796 limits assumed): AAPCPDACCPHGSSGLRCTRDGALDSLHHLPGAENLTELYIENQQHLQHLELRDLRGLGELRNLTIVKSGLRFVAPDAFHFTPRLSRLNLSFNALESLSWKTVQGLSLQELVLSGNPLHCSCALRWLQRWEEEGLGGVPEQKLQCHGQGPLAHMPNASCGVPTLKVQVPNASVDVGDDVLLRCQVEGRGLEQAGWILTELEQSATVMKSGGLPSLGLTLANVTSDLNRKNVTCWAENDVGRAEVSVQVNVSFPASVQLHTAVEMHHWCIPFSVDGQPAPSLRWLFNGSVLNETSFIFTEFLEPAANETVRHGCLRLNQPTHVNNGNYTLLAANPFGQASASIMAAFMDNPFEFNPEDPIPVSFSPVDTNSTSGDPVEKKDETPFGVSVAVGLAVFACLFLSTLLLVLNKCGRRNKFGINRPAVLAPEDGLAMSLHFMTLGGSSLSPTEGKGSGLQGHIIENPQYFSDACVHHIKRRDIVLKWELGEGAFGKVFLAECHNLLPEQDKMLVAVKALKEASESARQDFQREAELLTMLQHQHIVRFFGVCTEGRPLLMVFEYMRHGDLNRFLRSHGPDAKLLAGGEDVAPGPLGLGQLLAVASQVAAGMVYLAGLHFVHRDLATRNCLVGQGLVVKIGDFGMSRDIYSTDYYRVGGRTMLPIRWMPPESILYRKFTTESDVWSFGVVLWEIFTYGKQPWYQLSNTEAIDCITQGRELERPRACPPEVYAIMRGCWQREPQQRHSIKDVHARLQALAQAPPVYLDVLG

In turn, “rhNGF-CTP (long-lasting recombinant human nerve growth factor; mature NGF-CTP) (ligand)” yielded a specific activity in the TF-1 cell proliferation assay (MTT) of 1.2e+06 AU mg^-1.
